Experimental data reported in the supplement of paper PMC10567573.
± gives the standard deviation.

Assay: protein stability index of a GFP-peptide fusion (GPS, HEK-293T) (PSI 1-6); higher = more stable
[1] = treatment: DMSO, c terminus: a fixed tail appended
[2] = treatment: MLN4924 1 uM, 8 h, c terminus: a fixed tail appended
[3] = treatment: DMSO, c terminus: native
[4] = treatment: MLN4924 1 uM, 8 h, c terminus: native
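Also: 24-mer peptide tiles fused after GFP, lentivirally expressed, FACS-sorted into six equal bins by GFP/DsRed ratio, decoded by Illumina sequencing, PSI is the read-weighted mean bin number.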

Sequence	protein stability index [1]	protein stability index [2]	protein stability index [3]	protein stability index [4]
HCNLFVYSSSKGSLRLCDMRAAAL [PPP2R2C]	2.6 ± 0.69	2.63 ± 0.35	–	–
HDIIKHPMDLSTVKRKMDGREYPD [BRD3]	5.02 ± 0.19	5.1 ± 0.11	–	–
HESVCKYYLCGFCPAELFTNTRSD [LUC7L3]	2.17 ± 0.33	2.54 ± 0.29	–	–
HGAHKHHPIEEAAEEHREKLLKQM [TRIM43]	5.17 ± 0.24	5.14 ± 0.14	–	–
HHDKVQSLCYLQLTRQLVSCSSDG [WDFY1]	2.2 ± 0.36	2.06 ± 0.28	–	–
HKQLLLFHNAVSAYFAGNQKQLEQ [ARFIP2]	2.19 ± 0.45	2.17 ± 0.18	–	–
HLEVKFMNPYNAVLTKKFQVTMRG [FBXO39]	2.17 ± 0.22	2.28 ± 0.22	–	–
HLKKVASRYQNNIKNDKYGPWLEW [PRIM1]	2.23 ± 0.38	2.3 ± 0.25	–	–
HLVPVIEMWADQLTSLKDLYKSLK [CEP70]	2.47 ± 0.5	2.32 ± 0.39	–	–
HMLLNTTLNIKETDSKELSMAKEV [ZBED1]	4.26 ± 0.17	4.35 ± 0.2	–	–
HPAFLPQRQAIKGAFYRRAQRLRP [KCNG1]	3.32 ± 0.37	3.58 ± 0.33	–	–
HPVNPPYYIPLVELVPHPETAPTT [CRYL1]	3.51 ± 0.33	3.51 ± 0.22	–	–
HQGEEEGPLDIWAVVKPGNTKEKI [FBXO34]	4.6 ± 0.15	4.76 ± 0.27	–	–
HRDSSQAIPITELTKSQVQDKPYK [ZNF8]	4.96 ± 0.2	5.1 ± 0.3	–	–
HRLKLRLAIQEMVSLTSPSAPPTS [PPFIA4]	2.5 ± 0.43	2.46 ± 0.24	–	–
HRLLNMARNNNDPGRLTEALCLEV [RNF180]	3.89 ± 0.33	3.96 ± 0.28	–	–
HRRFCELLPQEQRSVESSLRAQVP [CIB1]	3.63 ± 0.13	3.66 ± 0.15	–	–
HRTHTGERPYGCDECEKAYFYMSC [ZNF649]	2.68 ± 0.17	2.54 ± 0.26	–	–
HRWPSNMYLKQLAEYRKYIHSRKC [RHOBTB3]	2.75 ± 0.37	3.19 ± 0.27	–	–
HSGEKPFICKECGKAYGWCSELIR [ZNF232]	2.22 ± 0.25	2.72 ± 0.66	–	–
HTEERPFKCNYCGKSFRQRPSLVI [ZNF449]	2.37 ± 0.15	2.44 ± 0.28	–	–
HVAAAVLRIRSVEGRKKAFSTCGS [OR3A1]	2.3 ± 0.24	2.22 ± 0.34	–	–

Sequence	protein stability index [1]	protein stability index [2]	protein stability index [3]	protein stability index [4]
HVYIGSAGLDWQSLGQMKELGVIF [PLD5]	2.49 ± 0.71	2.58 ± 1.1	–	–
IAAGEVIQRPANAIKEMIENCLDA [MLH1]	4.26 ± 0.18	4.3 ± 0.34	–	–
IAHRGERRGIGGIFFDDLDSPSKE [CPOX]	4.57 ± 0.4	4.72 ± 0.21	–	–
ICNNKWFTDTSIILFLNKKDLFEE [GNAI1]	3.06 ± 0.97	2.83 ± 0.45	–	–
IDAVPVDENLFTGEDLDELEEELN [ZC3H15]	5.53 ± 0.21	5.51 ± 0.19	–	–
IEVFDPDANTWRLYGGMNYRRLGG [KLHL20]	2.38 ± 0.45	2.17 ± 0.26	–	–
IFAGVHDEKAKPRDRQQAPGLGQE [TLE6]	4.73 ± 0.2	4.81 ± 0.065	–	–
IFNNVMTLCAMLPLLLFTYLNSFL [SLC29A1]	3.25 ± 0.25	3.23 ± 0.2	–	–
IFSVTALDPDSKENAQIIYSLAED [PCDHGA10]	3.1 ± 0.47	3.21 ± 0.19	–	–
IFTTPNFDETSSATTISTSEDGSY [KMT2E]	4.75 ± 0.13	4.67 ± 0.26	–	–
IFYFVIQRKKWVDLAWMITFYVRF [FADS1]	2.6 ± 0.72	2.93 ± 0.94	–	–
IGEEVRQLMEKLREKQLSHSLRAV [BEX1]	2.68 ± 0.14	2.82 ± 0.22	–	–
IIYKQTKGGVQNFNKDLVQDCGFE [CEP70]	1.96 ± 0.42	2.66 ± 0.22	–	–
IKKKGWRRSSLVITTKIFWGGKAE [KCNAB2]	2.51 ± 0.55	2.75 ± 0.64	–	–
IKPSNIFISRTSIPNAASEEGDED [WEE1]	4.71 ± 0.24	4.97 ± 0.27	–	–
IKVEQATKPSFESGRRGPPPPPRS [RBMX]	4.06 ± 0.36	4.17 ± 0.34	–	–
ILESSQTLLSVLKREAGNLTKATA [SSNA1]	2.69 ± 0.46	2.99 ± 0.29	–	–
ILHPELTVDSMIPAYATTRIRSQI [GDAP1]	2.52 ± 0.2	2.55 ± 0.17	–	–
ILREELQKQRLREILEQQQQERND [ZNF277]	4.4 ± 0.51	4.32 ± 0.33	–	–
ILTFLRAGKLRLLREMCALSFQEE [KCNG1]	3.24 ± 0.69	2.19 ± 0.28	–	–
IMNEKCVVENAEKILGYLNTNVLS [SLC6A17]	2.92 ± 0.35	2.47 ± 0.5	–	–
INDEMQAKGIPQRAPPKRKRKRVK [PCMTD1]	5.51 ± 0.23	5.36 ± 0.24	–	–

Sequence	protein stability index [1]	protein stability index [2]	protein stability index [3]	protein stability index [4]
INKEELEGNSMRCGRKLAKDGEYC [GMCL1]	4.04 ± 0.36	4.15 ± 0.49	–	–
INRWRFLLQCLEDLDANLRKLNSR [CRY1]	2.06 ± 0.16	2.45 ± 0.15	–	–
IPKPQSTGWFGGGFTSYLGFGDED [MIA2]	3.14 ± 0.16	3.53 ± 0.55	–	–
IPYFITLGTELAERQGNGQQAMSL [KCNA3]	3.03 ± 0.59	3.01 ± 0.37	–	–
IREDEVHRLGSPYGHCTAGGEGVE [SCNN1D]	4.8 ± 0.26	4.85 ± 0.11	–	–
IRKERKRLKLMQQNPAGELEGFQA [ATE1]	3.87 ± 0.65	3.76 ± 0.32	–	–
ISAHKPLLISSCDWMAAMFGGPFV [RHOBTB2]	2.51 ± 0.57	2.44 ± 0.2	–	–
ISFGQLSDRFGRKKVYLTGFALDI [SLC22A15]	2.97 ± 0.43	2.73 ± 0.59	–	–
ISGREVFEFRPELVNDDDEEADDT [ZC3H15]	5.51 ± 0.26	5.47 ± 0.16	–	–
ISLMYGGSKRKSSFFSSPPYFED [SLA]	–	–	2.22 ± 0.22	2.27 ± 0.27
ISVLAFSVCFIFTITIGMFPAVTV [SLC29A1]	2.96 ± 0.13	2.92 ± 0.32	–	–
ISVTAYQNPQITQLKIAANPFAKG [TBX6]	2.33 ± 0.22	2.36 ± 0.16	–	–
ISYLVLSMISMGLFSIAPLIYGSM [JAGN1]	2.91 ± 0.46	3.19 ± 0.17	–	–
ITCLTCQGTGYIPTEQVNELVALI [TMEM106C]	2.17 ± 0.3	2.2 ± 0.27	–	–
ITGLPLDNPSVLSGPMQAALQAAA [SMG5]	3.08 ± 0.2	3.11 ± 0.082	–	–
ITTDNLQCRERREHPNLVRDHVET [TEKT4]	4.35 ± 0.085	4.44 ± 0.17	–	–
IVDPTTGKRYCRGKVLGKGGFAKC [PLK2]	2.63 ± 0.38	2.92 ± 0.16	–	–
IVEVLGIPPAAMLDQAPKARKYFE [DYRK1B]	2.65 ± 0.42	2.93 ± 0.14	–	–
IYDNAVQGLRRHEILQWVLQTDSQ [LRRC59]	2.56 ± 0.2	2.64 ± 0.35	–	–
IYGGELGPMMKLKRHFVAQKYKKQ [ACSBG2]	2.49 ± 0.2	2.85 ± 0.25	–	–
KAPAKKANSTTTAGRDHFLTCGV [BRD3]	–	–	2.5 ± 0.11	2.74 ± 0.26
